The test system of series [1] is HeLa Kyoto. The series is described as follows: solubility change mitosis vs G1/S (difference of NP-40 vs SDS log2 ratios) (log2 ratio difference); higher = more soluble in mitosis.
For series [2], the system named is HeLa Kyoto. The series is described as follows: thermal stability score vs G1/S (z-score of summed log2 fold changes over temperatures); higher = more thermally stable than in G1/S.
Series [3] deals with HeLa Kyoto. The series is described as follows: solubility in G1/S (NP-40 vs SDS abundance) (log2 ratio); higher = more soluble. The conditions noted are these: cell cycle stage: G1/S.
For series [4], the system named is HeLa Kyoto. The series is described as follows: melting temperature (median over replicates), in situ; higher = more thermally stable.
Where [5] appears, read: cell cycle stage: early G1 (4.5 h after nocodazole release).
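For melting temperature (median over replicates), in situ in this document: HeLa Kyoto cells synchronized by double thymidine or nocodazole block, proteins quantified by TMT10plex mass spectrometry, three independent biological replicates.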
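For solubility change mitosis vs G1/S (difference of NP-40 vs SDS log2 ratios) in this document: synchronized HeLa Kyoto cells (double thymidine block for G1/S, nocodazole release for mitosis), protein amounts in NP-40 versus SDS lysates quantified by mass spectrometry, three biological replicates.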
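For solubility in G1/S (NP-40 vs SDS abundance) in this document: HeLa Kyoto cells arrested at G1/S by double thymidine block, proteins quantified by TMT10plex mass spectrometry in mild NP-40 versus SDS extracts, three biological replicates.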
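For thermal stability score vs G1/S (z-score of summed log2 fold changes over temperatures) in this document: synchronized HeLa Kyoto cells, proteins quantified by TMT10plex mass spectrometry, three biological replicates, mitosis taken 0.5 h after nocodazole release, G1/S directly after double thymidine block.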

In the case of “MVPALRYLVGACGRARGLFAGGSPGACGFASGRPRPLCGGSRSASTSSFDIVIVGGGIVGLASARALILRHPSLSIGVLEKEKDLAVHQTGHNSGVIHSGIYYKPESLKAKLCVQGAALLYEYCQQKGISYKQCGKLIVAVEQEEIPRLQALYEKGLQNGVPGLRLIQQEDIKKKEPYCRGLMAIDCPHTGIVDYRQVALSFAQDFQEAGGSVLTNFEVKGIEMAKESPSRSIDGMQYPIVIKNTKGEEIRCQYVVTCAGLYSDRISELSGCTPDPRIVPFRGDYLLLKPEKCYLVKGNIYPVPDSRFPFLGVHFTPRMDGSIWLGPNAVLAFKREGYRPFDFSATDVMDIIINSGLIKLASQNFSYGVTEMYKACFLGATVKYLQKFIPEITISDILRGPAGVRAQALDRDGNLVEDFVFDAGVGDIGNRILHVRNAPSPAATSSIAISGMIADEVQQRFEL [L2HGDH]”, the “solubility change mitosis (log2)” value in the series with HeLa Kyoto [1] was -0.123. For the same sequence, the results for the thermal stability score with HeLa Kyoto [2] (setting [5]) and in the series with HeLa Kyoto [2] (cell cycle stage: mitosis) were 0.996 and 0.751, respectively. Further, the “solubility in G1/S (log2)” value in the series on HeLa Kyoto [3] was determined as 0.0471. Also, the figures for the melting temperature in the series on HeLa Kyoto [4] (cell cycle stage: G1/S) and with HeLa Kyoto [4] (cell cycle stage: mitosis) were 53.9 °C and 53.6 °C, respectively.

On to “MVQAWYMDDAPGDPRQPHRPDPGRPVGLEQLRRLGVLYWKLDADKYENDPELEKIRRERNYSWMDIITICKDKLPNYEEKIKMFYEEHLHLDDEIRYILDGSGYFDVRDKEDQWIRIFMEKGDMVTLPAGIYHRFTVDEKNYTKAMRLFVGEPVWTAYNRPADHFEARGQYVKFLAQTA [ADI1]”, for which the “solubility change mitosis (log2)” value with HeLa Kyoto [1] is -0.0474. Moreover, the thermal stability score in the series with HeLa Kyoto [2] (setting [5]) was -0.911; with HeLa Kyoto [2] (cell cycle stage: mitosis) it was -0.735. Moreover, the “solubility in G1/S (log2)” value in the series on HeLa Kyoto [3] came to 0.18. Moreover, the melting temperature in the series with HeLa Kyoto [4] (cell cycle stage: G1/S) and in the series on HeLa Kyoto [4] (cell cycle stage: mitosis) was 51.1 °C in each case.

Take “MVQLYNLHPFGSQQVVPCKLEPDRFCGGGRDALFVAAGCKVEAFAVAGQELCQPRCAFSTLGRVLRLAYSEAGDYLVAIEEKNKATFLRAYVNWRNKRTENSRVCIRMIGHNVEGPFSKAFRDQMYIIEMPLSEAPLCISCCPVKGDLLVGCTNKLVLFSLKYQIINEEFSLLDFERSLIIHIDNITPVEVSFCVGYVAVMSDLEVLIVKLESGPKNGERVHHHPHKTNNRIRRTEEGISNEISQLESDDFVICQKPLELLGEKSEQSGLSVTLESTGLADEKRKYSHFQHLLYRRFAPDISSYVLSDDIKLHSLQLLPIYQTGSLTSDGKNLSQEKELLSLFCFFSLPHVGYLYMVVKSVELMSVYQYPEKSQQAVLTPQFLHVITSNNLQCFTVRCSAAAAREEDPYMDTTLKACPPVSMDVCALRIQLFIGLKAICHFKNHIILLTKAEPEAIPERRQSPKRLLSRKDTSVKIKIPPVAEAGWNLYIVNTISPVQLYKEMVDYSNTYKTVKTQSCIHLLSEAHLLVRAALMDASQLEPGEKAELLEAFKESCGHLGDCYSRLDSQHSHLTLPYYKMSGLSMAEVLARTDWTVEDGLQKYERGLIFYINHSLYENLDEELNEELAAKVVQMFYVAEPKQVPHILCSPSMKNINPLTAMSYLRKLDTSGFSSILVTLTKAAVALKMGDLDMHRNEMKSHSEMKLVCGFILEPRLLIQQRKGQIVPTELALHLKETQPGLLVASVLGLQKNNKIGIEEADSFFKVLCAKDEDTIPQLLVDFWEAQLVACLPDVVLQELFFKLTSQYIWRLSKRQPPDTTPLRTSEDLINACSHYGLIYPWVHVVISSDSLADKNYTEDLSKLQSLICGPSFDIASIIPFLEPLSEDTIAGLSVHVLCRTRLKEYEQCIDILLERCPEAVIPYANHELKEENRTLWWKKLLPELCQRIKCGGEKYQLYLSSLKETLSIVAVELELKDFMNVLPEDGTATFFLPYLLYCSRKKPLT [HPS3]”: the “solubility change mitosis (log2)” value in the series on HeLa Kyoto [1] is -0.103. Also, the thermal stability score in the series with HeLa Kyoto [2] (setting [5]) was 0.612; with HeLa Kyoto [2] (cell cycle stage: mitosis) it was 0.736. Further, the “solubility in G1/S (log2)” value in the series with HeLa Kyoto [3] was -0.0533. For the same sequence, the melting temperature came to 51.4 °C in the series with HeLa Kyoto [4] (cell cycle stage: G1/S) and 50.6 °C in the series with HeLa Kyoto [4] (cell cycle stage: mitosis).

In the case of “MVSKMIIENFEALKSWLSKTLEPICDADPSALAKYVLALVKKDKSEKELKALCIDQLDVFLQKETQIFVEKLFDAVNTKSYLPPPEQPSSGSLKVEFFPHQEKDIKKEEITKEEEREKKFSRRLNHSPPQSSSRYRENRSRDERKKDDRSRKRDYDRNPPRRDSYRDRYNRRRGRSRSYSRSRSRSWSKERLRERDRDRSRTRSRSRTRSRERDLVKPKYDLDRTDPLENNYTPVSSVPSISSGHYPVPTLSSTITVIAPTHHGNNTTESWSEFHEDQVDHNSYVRPPMPKKRCRDYDEKGFCMRGDMCPFDHGSDPVVVEDVNLPGMLPFPAQPPVVEGPPPPGLPPPPPILTPPPVNLRPPVPPPGPLPPSLPPVTGPPPPLPPLQPSGMDAPPNSATSSVPTVVTTGIHHQPPPAPPSLFTADTYDTDGYNPEAPSITNTSRPMYRHRVHAQRPNLIGLTSGDMDLPPREKPPNKSSMRIVVDSESRKRTIGSGEPGVPTKKTWFDKPNFNRTNSPGFQKKVQFGNENTKLELRKVPPELNNISKLNEHFSRFGTLVNLQVAYNGDPEGALIQFATYEEAKKAISSTEAVLNNRFIKVYWHREGSTQQLQTTSPKVMQPLVQQPILPVVKQSVKERLGPVPSSTIEPAEAQSASSDLPQNVTKLSVKDRLGFVSKPSVSATEKVLSTSTGLTKTVYNPAALKAAQKTLLVSTSAVDNNEAQKKKQEALKLQQDVRKRKQEILEKHIETQKMLISKLEKNKTMKSEDKAEIMKTLEVLTKNITKLKDEVKAASPGRCLPKSIKTKTQMQKELLDTELDLYKKMQAGEEVTELRRKYTELQLEAAKRGILSSGRGRGIHSRGRGAVHGRGRGRGRGRGVPGHAVVDHRPRALEISAFTESDREDLLPHFAQYGEIEDCQIDDSSLHAVITFKTRAEAEAAAVHGARFKGQDLKLAWNKPVTNISAVETEEVEPDEEEFQEESLVDDSLLQDDDEEEEDNESRSWRR [RBM26]”, the “solubility change mitosis (log2)” value with HeLa Kyoto [1] was 0.0367. For the same sequence, the figures for the thermal stability score with HeLa Kyoto [2] (setting [5]) and in the series with HeLa Kyoto [2] (cell cycle stage: mitosis) were 1.92 and 4.06, respectively. In the series on HeLa Kyoto [3], the “solubility in G1/S (log2)” value was -0.109. Further, the melting temperature in the series on HeLa Kyoto [4] (cell cycle stage: G1/S) is 47 °C; in the series with HeLa Kyoto [4] (cell cycle stage: mitosis) it was 48.9 °C.

Turning to “MVSRVQLPPEIQLAQRLAGNEQVTRDRAVRKLRKYIVARTQRAAGGFTHDELLKVWKGLFYCMWMQDKPLLQEELGRTISQLVHAFQTTEAQHLFLQAFWQTMNREWTGIDRLRLDKFYMLMRMVLNESLKVLKMQGWEERQIEELLELLMTEILHPSSQAPNGVKSHFIEIFLEELTKVGAEELTADQNLKFIDPFCRIAARTKDSLVLNNITRGIFETIVEQAPLAIEDLLNELDTQDEEVASDSDESSEGGERGDALSQKRSEKPPAGSICRAEPEAGEEQAGDDRDSGGPVLQFDYEAVANRLFEMASRQSTPSQNRKRLYKVIRKLQDLAGGIFPEDEIPEKACRRLLEGRRQKKTKKQKRLLRLQQERGKGEKEPPSPGMERKRSRRRGVGADPEARAEAGEQPGTAERALLRDQPRGRGQRGARQRRRTPRPLTSARAKAANVQEPEKKKKRRE [RRP1]”, the “solubility change mitosis (log2)” value in the series on HeLa Kyoto [1] was 0.797. Also, the thermal stability score with HeLa Kyoto [2] (setting [5]) is 2.67; with HeLa Kyoto [2] (cell cycle stage: mitosis), 7.98. For the same sequence, the “solubility in G1/S (log2)” value in the series with HeLa Kyoto [3] was -1.24. For the same sequence, the melting temperature in the series with HeLa Kyoto [4] (cell cycle stage: G1/S) came to 46.6 °C; in the series on HeLa Kyoto [4] (cell cycle stage: mitosis), 48.8 °C.

Source of the values: the supplement of paper PMC5998384.
